Source: publication PMC11018872, “Dynamic inter-domain transformations mediate the allosteric regulation of human 5, 10-methylenetetrahydrofolate reductase” (Nature Communications, 2024)

Target: the molecule itself
Test: negative stain EM; TEV-cleaved purified MTHFRFL, 50 nM in 20 mM HEPES pH 7.5, 200 mM NaCl with 5 mM SAM or 2.6 mM SAH; 2D classes

B1: full-length human 5,10-methylenetetrahydrofolate reductase (MTHFRFL aa 1-656) (enzyme)
chain: not shown
modifications: multiply phosphorylated during its recombinant expression (N-terminal Ser/Thr-rich region; sites not given)
notes: human 5,10-methylenetetrahydrofolate reductase (MTHFR), full-length, aa 1-656, wild type; Homodimer; also called MTHFRFL^SAM; MTHFRFL^(SAH (symm)); source: baculovirus/insect cell system, SF9 cells, purified (Ni-NTA, Superdex 200 size exclusion); flag/His10 tag removed with TEV protease; not shown: FLAG, C-terminal, cleaved; His10, C-terminal, cleaved
Does B1 bind?
Result: binds
